Measured values as given in publication PMC11275975, “Structural basis for transcription activation through cooperative recruitment of MntR” (Research Square, 2024).

Target: the molecule itself
Experiment: mass photometry; MntR alone, in the presence of 1 mM Mn2+; single peak; monomers to dimer

B1: manganese transport regulator (MntR) from B. subtilis, wild type (natural protein)
chain: MTTPSMEDYIEQIYMLIEEKGYARVSDIAEALAVHPSSVTKMVQKLDKDEYLIYEKYRGLVLTSKGKKIGKRLVYRHELLEQFLRIIGVDEEKIYNDVEGIEHHLSWNSIDRIGDLVQYFEEDDARKKDLKSIQKKTEHHNQ
notes: MntR, manganese transport regulator, Bacillus subtilis; dimer of 142-residue subunits; the cryo-EM maps show residues 3-142; Expressed from the pSMT3 vector as a His6-SUMO fusion; the tag was cut off with ULP-1; Assayed with 1 mM Mn2+ (two Mn2+ ions per subunit); also called WT MntR; MntR2 (dimer); source: E. coli BL21(DE3)NiCo, purified (TALON, ULP-1 cleavage, Ni-NTA)
stoichiometry N: 2
